± gives the uncertainty stated by the source.

The data set in a line: amyloid nucleation score (Sup35N fusion, yeast selection) (log enrichment); library NNK2; higher = more nucleation; inactive = no reads after selection. In outline: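 Random libraries were run with three technical output replicates. In each, psi-negative yeast expressing Sup35N fused to peptides of 20 random codons were induced 24 hours with 100 μM copper sulfate and grown 7 days at 30°C on medium lacking adenine and uracil, and input and output plasmid inserts were Illumina-sequenced. The nucleation score is the DiMSum log enrichment of output over input reads, centred on the mode score of non-aggregating sequences, and sequences under 100 input reads were excluded.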

For the substance TGLIGEPYGWDRSTTGF, the amyloid nucleation score amounted to 0.17 ± 0.43.

The substance VIFYRSFTVS registered an amyloid nucleation score of 3.64 ± 0.053.

Turning to SILTVKQRTYVNGGRLYSRY, the amyloid nucleation score is 0.005 ± 0.49.

Substance VSLYLYPVGMGMSE gave an amyloid nucleation score of 1 ± 0.68.

In turn, CRFLRA gave an amyloid nucleation score of -0.051 ± 0.79.

Regarding LYERFIVENDCFQNHMKHEA, the amyloid nucleation score result was “inactive”.

DHCMMLRFN: the amyloid nucleation score was found to be 0.716 ± 0.6.

With IYFESPPTRWGGYVADNCEY, the amyloid nucleation score is -1.36 ± 0.76.

The substance HYGVNESLIKRYNWLRGVIW came in with an amyloid nucleation score of 0.227 ± 1.1.

For AFDGGIFFSLMSFMLVWMGS, the amyloid nucleation score was -0.345 ± 0.56.

Substance HRHFCSLDGA displayed an amyloid nucleation score of 0.076 ± 0.29.

In turn, RGLRMTRIISFFGIVGL registered an amyloid nucleation score of 8.507 ± 0.026.

SLFFFR displayed an amyloid nucleation score of 5.03 ± 0.06.

On to TRQKACMISKASPLGSSEYA, for which the amyloid nucleation score result was “inactive”.

For the substance TAIYENYCMSVMWMLVVGRI, the amyloid nucleation score is -0.277 ± 0.3.

The substance DGPIPLLSGMGHGGRYLWCV displayed an amyloid nucleation score of 1.01 ± 0.18.

As to GDFDKDV, the amyloid nucleation score was -0.188 ± 0.5.

The substance AGDLKRLSSQQLM returned an amyloid nucleation score of 4.03 ± 0.051.

VIQNYL: the amyloid nucleation score is -0.624 ± 0.39.

Take IGNDFNANM: the amyloid nucleation score was -0.754 ± 0.76.

As to SVLKYS, the amyloid nucleation score was -0.334 ± 0.63.

RHAASVWLKDQDVLYPTMT gave an amyloid nucleation score of 0.995 ± 0.16.

VKWACNMLSI: the amyloid nucleation score was -0.676 ± 0.48.

FVCYADTNNGPQVVRTELSV showed an amyloid nucleation score of -0.299 ± 1.1.

As to NLGNDGHSELRHYSNL, the amyloid nucleation score result was “inactive”.

Consider VVSKLFRDFYWRMLKSNMGW, for which the amyloid nucleation score amounted to 0.448 ± 0.62.

Substance HPDGYVHRVGSLN displayed an amyloid nucleation score of -0.235 ± 1.1.

For the substance TSVIGKSGPRYLFLEC, the amyloid nucleation score was 0.299 ± 0.8.

For WMIGRCD, the amyloid nucleation score is 0.319 ± 0.61.

Turning to CVFAHFCCLFASMMPCKFSW, the amyloid nucleation score is -0.127 ± 1.

PKGNSRYMRLIFDAQLSYTG displayed an amyloid nucleation score of 1.25 ± 0.13.

The substance ESKIACCDMMLW displayed an amyloid nucleation score of 5.89 ± 0.062.

Regarding EASKGHISTVLWLGGVIS, the amyloid nucleation score is -0.352 ± 0.65.

For the substance KIRRPFEMRGSVRDRGCIVR, the amyloid nucleation score is 0.938 ± 0.34.

With FFQLSYNIQASSNNLMASVS, the amyloid nucleation score result was “inactive”.

The substance KILNDWADMKSRLMGRLLGE yielded an amyloid nucleation score of 0.65 ± 0.42.

The substance SLSHRADACVTS returned an amyloid nucleation score of -0.647 ± 0.64.

In turn, IPPSLCARKLRCYYVGAEG showed an amyloid nucleation score of 0.249 ± 0.64.

SAKHTWVISR had an amyloid nucleation score of 0.098 ± 0.79.

As for GTLMTCVGG, the amyloid nucleation score result is “inactive”.

NDYLFIFHLFCLVSCLMNKW showed an amyloid nucleation score of -0.228 ± 1.1.

Turning to THLWVNSFMIDPFRSESAAT, the amyloid nucleation score was -0.499 ± 0.54.

MRAYFYNKRVISYSLISFPV: the amyloid nucleation score was -1.45 ± 0.78.

The substance EGRCNYTGHMFCRYLCKHYT came in with an amyloid nucleation score of -0.088 ± 1.1.

VLFNKSLLRWSNWLV displayed an amyloid nucleation score of 0.166 ± 0.26.

Turning to YNSTALKVSWRVRLGPWNWI, the amyloid nucleation score was -0.06 ± 1.1.

Substance WLTLGVYELRWMRSPNTGCL returned an amyloid nucleation score of 1.8 ± 0.23.

RRYHRR had an amyloid nucleation score of 1.42 ± 0.38.

On to MNQTCIRVDRLELYRYM, for which the amyloid nucleation score result is “inactive”.

FVVQPLSSFLWVSIA returned an amyloid nucleation score of 1.05 ± 0.3.

ALRDFS gave an amyloid nucleation score of 0.465 ± 0.8.

The substance NWVSIEHNYIFVLRYPENAS displayed an amyloid nucleation score of 8.465 ± 0.042.

RMHWTKTH showed an amyloid nucleation score of -0.311 ± 1.1.

NFMCVSYQAAANSILRVPQS had an amyloid nucleation score of 1.28 ± 0.11.

In turn, VGGLDKNHMVLDCLDKGCGM came in with an amyloid nucleation score of 0.216 ± 0.62.

Turning to PVSGGVNFNNRLLITWRAFW, the amyloid nucleation score was 0.885 ± 0.58.

On to AFRMLITGPGNS, for which the amyloid nucleation score is -1.07 ± 0.49.

Regarding RANFSGTKLLVNTECLWLSV, the amyloid nucleation score was found to be 2.35 ± 0.17.

The substance DDSNCNNHGRVDDKVR displayed an amyloid nucleation score of 4.9 ± 0.038.

WSWSLGNYYAHNVDCYSVGC came in with an amyloid nucleation score of -0.266 ± 0.41.

For FHWYGTVVIYVYLLADVYRC, the amyloid nucleation score was -0.153 ± 0.36.

On to DYILLARYSRNVHCS, for which the amyloid nucleation score is -0.343 ± 0.37.

Regarding PWYLRVSEHHKPWEPENWG, the amyloid nucleation score worked out at 0.552 ± 0.32.

In the case of CFGYWHSVRARCLRKVGHRT, the amyloid nucleation score is 0.546 ± 0.38.

Substance INRKGRRI showed an amyloid nucleation score of 0.007 ± 0.79.

With KVGNGRDCIMLTVSCA, the amyloid nucleation score came to 0.748 ± 0.23.

As for CLVDGLANVHVYRENLGF, the amyloid nucleation score was -0.841 ± 0.29.

With RVTRG, the amyloid nucleation score result was “inactive”.

MDLRVTVILFSDYEAYFDVT: the amyloid nucleation score turned out to be 1.33 ± 0.18.

Turning to FFYLRFAQWQLCRTFNAQGM, the amyloid nucleation score was -0.184 ± 1.1.

Turning to CIYKS, the amyloid nucleation score was -1.36 ± 0.75.

As to CVLSLNTGTASWITHVWKLY, the amyloid nucleation score came out at 0.349 ± 0.5.

Turning to WWLKALPRVILARLVSRGQG, the amyloid nucleation score turned out to be 0.458 ± 0.29.

As for KSVYLSIGDILAFFSIVLLY, the amyloid nucleation score result is “inactive”.

VLMASSLITVSICVPRTWAY came in with an amyloid nucleation score of 6.172 ± 0.041.

As to WMLRGRYFGTE, the amyloid nucleation score was -1.47 ± 0.44.

In turn, DGISFSAKSSSYSDASLRMR returned an amyloid nucleation score of 1.62 ± 0.097.

The substance ICTGVSTHIEPRPLTELCFR came in with an amyloid nucleation score of 2.6 ± 0.073.

SRVVGNRMYRSGLSRSSLLH showed an amyloid nucleation score of -0.263 ± 0.65.

With CFIPLGVNFGDRTWLTVRIR, the amyloid nucleation score was determined as 0.357 ± 0.41.

Substance VMYMASSLHYTEEPSTSIMT gave an amyloid nucleation score of -0.243 ± 0.27.

Consider GPLSNLYTKYDANENDGFIL, for which the amyloid nucleation score was -0.321 ± 0.41.

With GRWKDRFCTVGMLYSRG, the amyloid nucleation score was -0.316 ± 0.45.

In turn, HTHGGFSHRYGSRWGQYLSW came in with an amyloid nucleation score of 5.53 ± 0.063.

Consider NNELDRISRTVCLWWVG, for which the amyloid nucleation score is -0.239 ± 0.65.

Regarding THLSWQKMWFLIVHALKICL, the amyloid nucleation score result was “inactive”.

MWDNFPCAVVLFKLC had an amyloid nucleation score of 0.696 ± 0.23.

The substance VISKYDWFK displayed an amyloid nucleation score of -0.255 ± 1.1.

With VLSVSWYAYCVSMMFIKNWA, the amyloid nucleation score is 0.697 ± 0.19.

Substance LRTYYPRNVGA returned an amyloid nucleation score of -0.117 ± 0.5.

MALVSTSSFFDV: the amyloid nucleation score result is “inactive”.

As to VFYELGLFLLNFVVLHASED, the amyloid nucleation score was found to be 1.68 ± 0.18.

NVHRRMSEYVCVDRWEEWVR yielded an amyloid nucleation score of 0.811 ± 0.67.

For the substance IWRCNPG, the amyloid nucleation score was 1.04 ± 0.68.

NLRPAFHDMDKQCGG registered an amyloid nucleation score of 0.045 ± 0.63.

TPAWCYPTGIGLIPPEWLGQ displayed an amyloid nucleation score of 0.605 ± 0.23.

Substance ICLDLCNMKLEKGLS displayed an amyloid nucleation score of -1.55 ± 1.

The substance NTGSLWG gave an amyloid nucleation score of -1.41 ± 1.1.

Consider YTNHSLNMHLWCRNS, for which the amyloid nucleation score entry was “inactive”.

In the case of SMFNCNWYCGCCMCNLGCLA, the amyloid nucleation score was 7.334 ± 0.035.

PGTFFSLSKWWFIDGVTEPG: the amyloid nucleation score came to 0.178 ± 0.77.

Regarding RCRPFFPRNVFSRVENIYHA, the amyloid nucleation score is -0.602 ± 1.1.

In turn, SCIYLGVLRKVCMRFIMVIV showed an amyloid nucleation score of -1.03 ± 0.63.

AYLQGSLMEKICKISCPVDN: the amyloid nucleation score is -0.387 ± 1.1.

SYYFGPHWRVYTAFARFRI: the amyloid nucleation score result is “inactive”.

Take RNRRVWM: the amyloid nucleation score was -0.003 ± 0.41.

In the case of DAWRFSTNSLHSTAYYYYFL, the amyloid nucleation score came to 5.781 ± 0.043.

Consider NTEFIFQELRVMSHEVCIHI, for which the amyloid nucleation score result was “inactive”.

Substance CGCHCVYSPYYCFLTYWCAN yielded an amyloid nucleation score of -0.542 ± 0.76.

For the substance TGALVNM, the amyloid nucleation score is 0.13 ± 1.1.

In the case of STQRIEDIEIVEQKCPACIG, the amyloid nucleation score was 0.754 ± 0.3.

The substance FNLLARMIVYGIVLSQGKTG gave an amyloid nucleation score of -0.01 ± 0.63.

In turn, RRSQLRLILTFR had an amyloid nucleation score of -0.223 ± 0.29.

Substance CPVAQYQG gave an amyloid nucleation score of -0.308 ± 0.21.

Take PLYEELVWGRFRLMVYTGRF: the amyloid nucleation score is -0.193 ± 0.76.

On to IPKHLSSSVYAYYDLRLVFV, for which the amyloid nucleation score was 0.08 ± 0.22.

NVFLRPSFRGVHK registered an amyloid nucleation score of 2.05 ± 0.092.

Turning to LVGYLSSVELDYRWENC, the amyloid nucleation score was -0.026 ± 0.32.

Turning to ISFWYHSKTS, the amyloid nucleation score stood at 0.318 ± 0.57.

As to WLTKLDRTSLEGSEYFKKML, the amyloid nucleation score was found to be 0.307 ± 0.34.

On to TFFYYYCMCSRTL, for which the amyloid nucleation score is 7.83 ± 0.061.

SRWLSQSPDHSWGGQTYGMS: the amyloid nucleation score was -0.023 ± 0.63.

The substance CCDRSAPAT yielded an amyloid nucleation score of -0.12 ± 0.54.

QGLIFVSLFRCCSLCRQYTD gave an amyloid nucleation score of 2.72 ± 0.18.

Substance RTSKPLRRMNQRGLDFACAL showed an amyloid nucleation score of 1.04 ± 0.41.

IGVSLTYKIQVSTRLFSTLY: the amyloid nucleation score stood at 3.29 ± 0.15.

Consider VFSGGSPWWVANMRGAPKLL, for which the amyloid nucleation score turned out to be 0.94 ± 0.2.

Regarding RMCDL, the amyloid nucleation score was -1.19 ± 0.79.

As to TASSLCIQVGYVIFLY, the amyloid nucleation score was found to be 8.072 ± 0.032.

For IIAEFDSGWSEAFDSCLGMS, the amyloid nucleation score is -0.114 ± 0.54.

The substance RQGPALFSKINIATLKWLSM came in with an amyloid nucleation score of 0.511 ± 0.62.

As to RPFLSTEKRSILMCRVVKGM, the amyloid nucleation score was -0.254 ± 0.37.

The substance VCFNWRHYATRLSDERWLRS returned an amyloid nucleation score of 1.1 ± 0.52.

NCTRSSVWNNVVCLESHPSY: the amyloid nucleation score is -0.035 ± 0.76.

As for LVWCAISSNNKGLINVLADS, the amyloid nucleation score is -1.47 ± 0.5.

On to IAVSMNEMGY, for which the amyloid nucleation score entry was “inactive”.

Substance MGCICWVDCKPYDFGMTVVM had an amyloid nucleation score of -0.726 ± 0.49.

ISSEWEYHDT: the amyloid nucleation score result was “inactive”.

SRGLSGNSSASLEKLNRL showed an amyloid nucleation score of 0.072 ± 0.63.

Substance RTISMYEELVTELRNSVM had an amyloid nucleation score of -0.283 ± 0.33.

Regarding QVWPLCLVAGSSFGRRGVTG, the amyloid nucleation score is 1.18 ± 0.29.

These data come from the supplement of paper PMC12042874.
